The target of experiment [1] is V5 epitope-tagged soluble ZIKV E, covalently stabilised dimer carrying A264C (sE-cvD) (Zika virus (strain ArD158095)). In words: non-reducing SDS-PAGE.
For experiment [2], the target named is ZIKV full-length E protein carrying A264C (covalent dimer), in virus-like particles (VLP-cvD) (Zika virus (strain PE243)). Nature of the experiment: non-reducing SDS-PAGE with western blot.

Consider “V5 epitope-tagged soluble ZIKV E, covalently stabilised dimer carrying A264C (sE-cvD) (domain or fragment)”, for which the stoichiometry N (as a rule, a count of units in the complex or per binding partner) in experiment [1] came to 2. For the substance “ZIKV full-length E protein carrying A264C (covalent dimer), in virus-like particles (VLP-cvD) (natural protein)”, the stoichiometry N in experiment [2] was 2.

These data come from article doi:10.1101/2020.07.09.196626.
